T1: mouse tissue transglutaminase 2 C-terminal D3D4 domains (mTG2 D3D4) (mouse, UniProt P21981 471-686, biotin on the AVI-tag)
T1 chain: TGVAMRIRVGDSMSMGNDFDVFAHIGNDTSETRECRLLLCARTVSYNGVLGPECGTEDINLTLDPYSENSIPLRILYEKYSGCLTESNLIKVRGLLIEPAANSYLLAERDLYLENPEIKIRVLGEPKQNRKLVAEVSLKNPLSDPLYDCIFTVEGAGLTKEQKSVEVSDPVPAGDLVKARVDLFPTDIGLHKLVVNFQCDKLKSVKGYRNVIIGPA

T2: mouse tissue transglutaminase 2 C-terminal D3D4 domains (mTG2 D3D4) (mouse, UniProt P21981 471-686, biotin on the AVI-tag)
T2 construct: tissue transglutaminase 2 (TG2), mouse, domains D3 and D4, residues T471-A686; Used on M280 beads, or tetramerized with neutravidin-650 to stain cells; not shown: AVI-tag, N-terminal, kept
T2 sequence (looked up): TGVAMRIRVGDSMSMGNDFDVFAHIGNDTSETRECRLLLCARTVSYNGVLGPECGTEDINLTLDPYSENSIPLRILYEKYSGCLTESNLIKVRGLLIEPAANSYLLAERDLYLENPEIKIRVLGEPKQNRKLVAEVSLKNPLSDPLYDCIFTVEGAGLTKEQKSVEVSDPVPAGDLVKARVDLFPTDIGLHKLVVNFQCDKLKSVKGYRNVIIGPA


What was measured:
[1] = molecular target: mouse tissue transglutaminase 2 C-terminal D3D4 domains (mTG2 D3D4) (mouse) (UniProt P21981); experiment: bead-binding assay read by flow cytometry; titration of monomeric biotinylated GPR56 fragments on TG2 D3D4-coated M280 beads; detected with neutravidin-650; one-to-one binding fit; apparent KD
[2] = molecular target: T1, mouse tissue transglutaminase 2 …; experiment: FACS
[3] = molecular target: T2, mouse tissue transglutaminase 2 …; experiment: bead-binding assay read by flow cytometry; titration of monomeric biotinylated GPR56 fragments on TG2 D3D4-coated M280 beads; detected with neutravidin-650; one-to-one binding fit; apparent KD; details: both partners purified

Kd [3] | Molecule | other results
– | human GPR56 ECR H89A (domain or fragment) | Kd [1]: 790 nM
– | mouse GPR56 ECR S150A (domain or fragment, biotin on the AVI-tag) GSPREDFRFCGQRNQTQQSTLHYDQSSEPHIFVWNTEETLTIRAPFLAAPDIPRFFPEPRGLYHFCLYWSRHTGRLHLRYGKHDYLLSSQASRLLCFQKQEQSLKQGAPLIATSVSSWQIPQNTALPGAPSFIFSFHNAPHKVSHNASVDMCDLKKELQQLSRYLQHPQKAAKRPTAAFISQQLQSLESKLTSVSFLGDTLSFEEDRVNATVWKLPPTAGLEDLHIHSQKEEEQSEVQAYSLLLPRAVFQQTRGRRRDDAKRLLVVDFSSQALFQDKNSSQVLGEKVLGIVVQNTKVTNLSDPVVLTFQHQPQPKNVTLQCVFWVEDPASSSTGSWSSAGCETVSRDTQTSCLCNHLTYFAVLMVSSTEVEATHKHY | Kd [2]: 11 nM; fold increase in affinity against wild type [1]: 40 fold
330 ± 15 nM | human GPR56/ADGRG1 extracellular region (ECR), wild type (domain or fragment, biotin on the AVI-tag) RGHREDFRFCSQRNQTHRSSLHYKPTPDLRISIENSEEALTVHAPFPAAHPASRSFPDPRGLYHFCLYWNRHAGRLHLLYGKRDFLLSDKASSLLCFQHQEESLAQGPPLLATSVTSWWSPQNISLPSAASFTFSFHSPPHTAAHNASVDMCELKRDLQLLSQFLKHPQKASRRPSAAPASQQLQSLESKLTSVRFMGDMVSFEEDRINATVWKLQPTAGLQDLHIHSRQEEEQSEIMEYSVLLPRTLFQRTKGRSGEAEKRLLLVDFSSQALFQDKNSSQVLGEKVLGIVVQNTKVANLTEPVVLTFQHQLQPKNVTLQCVFWVEDPTLSSPGHWSSAGCETVRRETQTSCFCNHLTYFAVLMVSSVEVDAVHKH | –
440 ± 20 nM | mouse GPR56/ADGRG1 extracellular region (ECR), wild type (domain or fragment, biotin on the AVI-tag) PREDFRFCGQRNQTQQSTLHYDQSSEPHIFVWNTEETLTIRAPFLAAPDIPRFFPEPRGLYHFCLYWSRHTGRLHLRYGKHDYLLSSQASRLLCFQKQEQSLKQGAPLIATSVSSWQIPQNTSLPGAPSFIFSFHNAPHKVSHNASVDMCDLKKELQQLSRYLQHPQKAAKRPTAAFISQQLQSLESKLTSVSFLGDTLSFEEDRVNATVWKLPPTAGLEDLHIHSQKEEEQSEVQAYSLLLPRAVFQQTRGRRRDDAKRLLVVDFSSQALFQDKNSSQVLGEKVLGIVVQNTKVTNLSDPVVLTFQHQPQPKNVTLQCVFWVEDPASSSTGSWSSAGCETVSRDTQTSCLCNHLTYFAVLMVS | –
880 ± 80 nM | mouse GPR56 ECR H89A (domain or fragment, biotin on the AVI-tag) PREDFRFCGQRNQTQQSTLHYDQSSEPHIFVWNTEETLTIRAPFLAAPDIPRFFPEPRGLYAFCLYWSRHTGRLHLRYGKHDYLLSSQASRLLCFQKQEQSLKQGAPLIATSVSSWQIPQNTSLPGAPSFIFSFHNAPHKVSHNASVDMCDLKKELQQLSRYLQHPQKAAKRPTAAFISQQLQSLESKLTSVSFLGDTLSFEEDRVNATVWKLPPTAGLEDLHIHSQKEEEQSEVQAYSLLLPRAVFQQTRGRRRDDAKRLLVVDFSSQALFQDKNSSQVLGEKVLGIVVQNTKVTNLSDPVVLTFQHQPQPKNVTLQCVFWVEDPASSSTGSWSSAGCETVSRDTQTSCLCNHLTYFAVLMVS | –

From paper PMC7547085, “Specific and direct modulation of the interaction between adhesion GPCR GPR56/ADGRG1 and tissue transglutaminase 2 using synthetic ligands” (Scientific Reports, 2020)
